Reference: the supplement of paper PMC9170038

Test system: MS2 coat protein
Experiment: apparent KD of MS2 coat protein; designed switch direction (-1 OFF switch, 1 ON switch): -1; higher = weaker reporter binding
In short: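 Designed RNA switches were transcribed on Illumina chips by stalled E. coli RNA polymerase and titrated with SNAP-549-labelled MS2 coat protein from 0.7 or 1.5 nM, doubling to 3 µM. Step length ran from 0.8–1.5 h at the lowest concentration to 10–20 min at the highest. The apparent KD is the median over clusters for each design, from curve-fitted normalised cluster fluorescence.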

[1] = Eterna round: R95, input ligand: FMN 200 uM
[2] = Eterna round: R95, input ligand: microRNA oligo, concentration not stated
[3] = Eterna round: R95, input ligand: none
[4] = input ligand: microRNA oligo, concentration not stated

Row | Sequence | apparent KD of MS2 coat protein [1] | apparent KD of MS2 coat protein [2] | apparent KD of MS2 coat protein [3] | apparent KD of MS2 coat protein (input ligand: FMN 200 uM) | apparent KD of MS2 coat protein [4] | apparent KD of MS2 coat protein (input ligand: none)
1 | AGUAACUAUCACGAAAGUGAUAGUUACGCAAGCAGUGAAACAUGAGGAUCACCCAUGUCCUCAUUUGCUCGUCUUAU [Sensor 3 - 26] (puzzle: Sensor v3, turn-off variant 2) | 0.0539 µM | 0.435 µM | 0.0486 µM | – | – | –
2 | UUUAUAUAUGAAGGAUAUACUUAACAUGAGGAUCACCCAUGUGGUGUUGUGAGUGAGUGAGUUUAGUAGAAGGUCAAUGAUUUU [JMF's solution 70] (Eterna round: R96, puzzle: Exclusion NG 2) | – | – | – | 0.81 µM | 0.305 µM | 0.36 µM
3 | GUGGUACAUGAGGAUCACCCAUGUUAGGAUAUCGCGUGAGGUUUUACUUACACACACACGAGAAGGGACGUCUU (puzzle: Exclusion 1) | – | 0.0432 µM | – | – | – | –
4 | AUGCUCCGUGUAGGAUAUCGCCGUAUUAUUCGGCGAGAAGGACAUGAGGAUCACCCAUGUAUGUUAUUAUCACGUGUGGCGCGC [Design 47] (Eterna round: R96, puzzle: Exclusion NG 1) | – | – | – | 0.0418 µM | 0.0136 µM | 0.0218 µM
5 | GACUAGGGAGGAUAUAUUUACAGUGUACCUCGGGUGAUCGCACUUGAGGAUCACCCAAGUAGAAGGCUCGAGGG [EX2 #27] (Eterna round: R97, puzzle: Exclusion 2) | – | – | – | 0.03 µM | – | 0.0359 µM
6 | CCACUGUCAGGAUAUCGUGCAUAAGCGUUUACACUUAUGUGCGAGAAGGGACAUGAGGAUCACCCAUGUAAACG [Omei Ex4 A28PK7] (Eterna round: R97, puzzle: Exclusion 4) | – | – | – | 0.628 µM | – | 0.391 µM
7 | GAUGUGGGUUUUCAGAGUAACAUGAGGAUCACCCAUGUAGAAGUUGGAGGGAUCAAGCUUUUUGGUCGUCAUAUGUG [JR_SV3TOV1_Sub051] (Eterna round: R96, puzzle: Sensor v3, turn-off variant 1) | – | – | – | 0.603 µM | 0.358 µM | 0.588 µM
8 | CUGGACCCGGUAGGAUAUAUUGUGGGCGGGCGUGGAACGACAUGAGGAUCACCCAUGUGAUUGAGGUAGAAGGGCCGAGAGGUC [Excl-NG2-LRO19] (Eterna round: R96, puzzle: Exclusion NG 2) | – | – | – | 0.0432 µM | 0.0312 µM | 0.0429 µM
9 | GCAGCAUAGUGUUAUUACACAAUACAUGAGGAUCACCCAUGUGAGGAUAUGGACUGGAUUACAGUCCAGAAGGCACAAAGCUGC [Zipper Style 3] (Eterna round: R96, puzzle: Exclusion NG 3) | – | – | – | 0.0217 µM | 0.0125 µM | 0.0198 µM
10 | AUGCUCCGUGUAGGAUAUCGCCGUACUAUUCGGCGAGAAGGACAUGAGGAUCACCCAUGUAUGUUAUUAUCACGUGUGGCGCGC [Design 48] (Eterna round: R96, puzzle: Exclusion NG 1) | – | – | – | 0.057 µM | 0.0145 µM | 0.0189 µM
11 | UAUAUAUAGUAAGGAUAUGUAAUUAUAUUAUAAACAGAAGGUACUGACAUGAGGAUCACCCAUGUUUUAGUGUGGGCAUGUAGA [JMF's solution 38] (Eterna round: R96, puzzle: Exclusion NG 1) | – | – | – | 0.0859 µM | 0.0601 µM | 0.0977 µM
12 | AGCUGUGGCCGAGGAUAUCUGAAACUCAAAACCGAAAUAUAAUCGGACAUGAGGAUCACCCAUGUAGAGAAGGCGGUCUCAGCA [Eli eng2 - 079] (Eterna round: R96, puzzle: Exclusion NG 2) | – | – | – | – | 0.126 µM | –
13 | UAUGGUUAAGUCAGGAUAUACUAAUAGAAGUCUGUGUAGAAGGGACAUGAGGAUCACCCAUGUAUGGUAGUGUU [Ex4 #60] (Eterna round: R97, puzzle: Brourd's mod of Exclusion 4) | – | – | – | 0.119 µM | – | 0.122 µM
14 | GUCAGCUCGUGAGGAUAUGAACAUGAGGAUCACCCAUGUAAGAUCAAGCUGCUUCGGCAGCAAGUUCAGAAGGUACGAGCUGAU [ENG2/10-C2] (Eterna round: R96, puzzle: Exclusion NG 2) | – | – | – | 0.243 µM | 0.0933 µM | 0.122 µM
15 | CCCACAAGCUUUUUGCUCGACAUGAGGAUCACCCAUGUUGAAUGGGUUAUGUGUGUGUGAUACAUAUAUAUGGUCCU [-25.6, -50.5 kcal, A 23%] (Eterna round: R97, puzzle: Sensor, turn-off variant 1) | – | – | – | 0.201 µM | – | 0.207 µM
16 | GUGAAACAUGAGGAUCACCCAUGUGAGGAUAUGAUUUAGUAAUGGAGACAGUACAUAUUCAGAAGGCACAAUGG [Mat - Mod of JL D76] (puzzle: Exclusion 1) | 0.0552 µM | 0.15 µM | 0.182 µM | – | – | –
17 | UCACGGGAUUGAGGAUAUAUAUUAAUUUUUUUUAUAGAAGGCAAAAUGUUAGAUUAUUCACUAUACAUGAGGAUCACCCAUGUU [JR_ExcBG1_Sub076] (Eterna round: R96, puzzle: Exclusion NG 1) | – | – | – | – | 0.0182 µM | –

Row | Sequence | apparent KD of MS2 coat protein [1] | apparent KD of MS2 coat protein [2] | apparent KD of MS2 coat protein [3] | apparent KD of MS2 coat protein (input ligand: FMN 200 uM) | apparent KD of MS2 coat protein [4] | apparent KD of MS2 coat protein (input ligand: none)
18 | UUUUAACAAGCGAGGUCCUACAUGAGGAUCACCCAUGUAUGUCAUGGAUUCCAUGGUCUUUUUGCUCGUCUUGUGUG [jl TITIN mod 8] (Eterna round: R97, puzzle: Sensor, turn-off variant 1) | – | – | – | 0.103 µM | – | 0.105 µM
19 | GCAGAAAGUGUAGGAUAUAGAAAUUAGCGGAAACGCAAUACAUGAGGAUCACCCAUGUUUCCUCACUAGAAGGGCAAAAGCUGC [EXNG2 V2 f] (Eterna round: R96, puzzle: Exclusion NG 2) | – | – | – | – | 0.0128 µM | –
20 | UAAGUUUUGGUAGGAUAUACUUUAAAUUUCUCUAUCCAUACAUGAGGAUCACCCAUGUUUACAUUGUAGAAGGACCUUUAUGUU [JR_ExcNG2_Sub057] (Eterna round: R96, puzzle: Exclusion NG 2) | – | – | – | – | 0.0302 µM | –
21 | UAUUUAUAUGAAGGAUAUACUUAACAUGAGGAUCACCCAUGUGGUGUUGUGAGUGAGUGAGUUUAGUAGAAGGUCAAUGAUUUU [JMF's solution 74] (Eterna round: R96, puzzle: Exclusion NG 2) | – | – | – | 0.87 µM | 0.286 µM | 0.311 µM
22 | UGCAUGCUAGGAUAUACGAAACAUUAGGGUUCUUUGUAUGAACAUGAGGAUCACCCAUGUAGAAGGAGCGUGCU [Mod7 of JL-ex2-2.15 mat747 mod] (puzzle: Exclusion 2) | – | 0.0924 µM | – | – | – | –
23 | UUUAAUUGUCACAUGGGUGACAUGAGGAUCACCCAUGUCACAAGCUUUUUGUUCGUCUUAUAAUUAACCCAUGUGAC [Stov1/12-B1] (Eterna round: R97, puzzle: Sensor, turn-off variant 1) | – | – | – | 0.0139 µM | – | 0.0131 µM
24 | UAUUAACAAGCUAGGUCCCACAUGAGGAUCACCCAUGUGCUCGUCUUAUAAGGUACUGUGACGAAAGUCACGGUACC [Sensor 3, v1 - 79] (Eterna round: R96, puzzle: Sensor v3, turn-off variant 1) | – | – | – | 0.0302 µM | 0.464 µM | 0.0384 µM
25 | GCAAGACGAGGAUAUUGAGAAGGGAACAUGAGGAUCACCCAUGUGGUGGUUUCGACCGGUCGAGAAGGCGUAGAAC [EX5 B.6] (Eterna round: R97, puzzle: Exclusion 5) | – | – | – | 1.15 µM | – | 0.957 µM
26 | CAGUACCUAGGAUAUACACGGCCACGUGAUACCAAGGAGCAACUUGAGGAUCACCCAAGUAGAAGGAGGUACUG [jl-ex2.4.42 ViennaUCT mod] (Eterna round: R97, puzzle: Exclusion 2) | – | – | – | 3.2 µM | – | 0.198 µM
27 | AACGCUAAAGGAUAUACAUGAGGAUCACCCAUGUUGAGGAAGGUUAGAUGAGGAGUAAGUAGAAGGUUAGACGA [JR_Exclu3_Sub090] (puzzle: Exclusion 3) | – | 0.0237 µM | – | – | – | –
28 | AAAGGCUCAGGAUAUGCCCAGGAAGACAUGAGGAUCACCCAUGUACUACGGGUGUCAUACGCAGAAGGGAGAUAGA [EX5 C.28] (Eterna round: R97, puzzle: Exclusion 5) | – | – | – | 0.0251 µM | – | 0.0287 µM
29 | AACCUAAGGCAAAGCUUUAGGUGUACAUGAGGAUCACCCAUGUAGGAUAUGGUAGGCAAAGCUUACCAGAAGGACAUUAUGAUA [Mat - Exclusion NG 3 - Mod of JL - D53] (Eterna round: R96, puzzle: Exclusion NG 3) | – | – | – | 0.0821 µM | 0.0275 µM | 0.0552 µM
30 | GUCCUGGUAGGAUAUGAGGUUCACGACAUGAGGAUCACCCAUGUGGCCGUGUCUCAUACUUCAGAAGGACCGACAG [Eternabot (L2) Solution 5] (Eterna round: R97, puzzle: Exclusion 5) | – | – | – | 0.0161 µM | – | 0.0157 µM
31 | CUUUUGUGAGGAUAUUAGUAGUAAAUAAUUAAAAUUACUACUGAGAAGGCACAUGAGGAUCACCCAUGUUCCUC [salish99_ex4_r3_056] (puzzle: Exclusion 4) | – | 0.0352 µM | – | – | – | –
32 | ACAUGAGGAUCACCCAUGUCAACGAAAAGGCUCAUGUAGAGUGAGGAUAUGUGAGACGAACGAGAACAGAAGGCACAAGACAGG [Deportation 3 - Jieux - Exclusion NG 3] (Eterna round: R96, puzzle: Exclusion NG 3) | – | – | – | 0.0318 µM | 0.0166 µM | 0.0384 µM
33 | UUUUACAUGCUGAGAUCCUACAUGAGGAUCACCCAUGUGGUCCGGUGACUUUUGUCACCGGAUUUUGCUCGUCUUGU [salish99_S_TOV1_R5_101] (Eterna round: R97, puzzle: Sensor, turn-off variant 1) | – | – | – | 0.0848 µM | – | 0.108 µM
34 | UUUGUUGUUGUGAGGAUAUCGUUGUUAUUUUGAAACGAGAAGGCACAUGAGGAUCACCCAUGUUUGUUGUUGGU [JR_BMOE4_Sub059] (puzzle: Brourd's mod of Exclusion 4) | – | 0.0488 µM | – | – | – | –
